What was measured:
mouse Tie1 Fc = molecular target: T1, mouse Tie1 Fc (Mus musculus, UniProt Q06806); assay: BIAcore, mouse Tie1 Fc over IgG coated on CM5 chip; assay type: binding; conditions: IgG immobilised; Mouse Tie1 Fc analyte
T1 construct: both dimeric (Tie1-Fc fusion protein) and monomeric (Tie1-HIS) versions of the extracellular domain of the Tie1 were used
T1 sequence (Q06806 23-755 limits assumed): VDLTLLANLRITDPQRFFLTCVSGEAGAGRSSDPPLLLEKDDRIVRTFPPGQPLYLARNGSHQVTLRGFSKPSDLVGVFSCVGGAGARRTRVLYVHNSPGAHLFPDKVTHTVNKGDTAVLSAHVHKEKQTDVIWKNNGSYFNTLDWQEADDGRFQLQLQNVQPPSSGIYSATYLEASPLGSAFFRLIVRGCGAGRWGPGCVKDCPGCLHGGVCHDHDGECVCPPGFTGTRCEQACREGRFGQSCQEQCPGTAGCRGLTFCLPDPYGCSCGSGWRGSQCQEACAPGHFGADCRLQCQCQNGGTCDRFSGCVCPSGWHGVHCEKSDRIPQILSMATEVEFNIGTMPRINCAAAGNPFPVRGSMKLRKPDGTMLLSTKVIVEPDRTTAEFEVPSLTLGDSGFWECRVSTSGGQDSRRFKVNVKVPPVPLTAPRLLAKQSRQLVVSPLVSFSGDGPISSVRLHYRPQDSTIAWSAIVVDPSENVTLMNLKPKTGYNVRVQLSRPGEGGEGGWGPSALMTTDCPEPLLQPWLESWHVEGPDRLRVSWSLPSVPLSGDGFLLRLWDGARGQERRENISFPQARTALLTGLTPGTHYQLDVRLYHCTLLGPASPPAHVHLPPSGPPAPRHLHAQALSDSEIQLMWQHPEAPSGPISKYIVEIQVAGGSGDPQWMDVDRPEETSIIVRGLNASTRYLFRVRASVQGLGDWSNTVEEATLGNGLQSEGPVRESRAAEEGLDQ
Experimental: In order to evaluate if the binding behavior had been affected in any way by the conversion of the somatic mutations back to germline, the germlined antibody was produced and tested as an IgG. The germlined E3 was reformatted to an IgG as described. This was then used to transiently transfect HEK293T cells using established procedures. The IgG was purified from the culture supernatant using protein A column chromatography using established procedures and the subsequent IgG was then tested for binding activity using surface plasmon resonance (BIAcore). The germlined E3 IgG1 stock solution 0.63 mg/ml (2146-002) was diluted 1/50 in a buffer of pH 4.5 and the parental E3 IgG1 stock solution 0.56 mg/ml (2143-001) was diluted 1/50 in a buffer of pH 4.5. The IgG were directly coated via onto a CM5 chip. The surface of the chips was activated with a 7 minute pulse of 0.05M NHS/0.2M EDC and the IgG was flowed over until 780RU germlined E3-IgG and 728 non germlined E3 IgG was coated onto the surface. All flow cells were subsequently deactivated with a 7 minute pulse of 1M ethanolamine hydrochloride pH8,5. All analysis was performed in HBS buffer. Purified recombinant mouse Tie1 Fc was diluted 1/6,5 in HBS to obtain a 400 nM stock solution. Serial dilutions were made to obtain 200 nM, 100 nM, 50 nM and 25 nM Tie1 Fc stocks. For analysis of the association phase samples were injected at 30 μl/min for 8.3 minutes using kinject program. This was followed by a 40 minutes dissociation phase. Any antigen remaining associated to the surface was stripped from the IgG surface at a flow of 50 μl/min with two injections of 10 mM glycine pH1.5 for 30 seconds. All samples were run and analyzed in duplicate
Sensorgrams were analyzed using the simultaneous ka/kd fitting program with 1:1 model in the BIAEVALUATION™ software 3.1.

Tie1 = assay: Immunohistochemistry of mouse xenograft tumor sections (SW480); assay type: binding; conditions: biotinylated antibody 10 μg/ml, formalin-fixed paraffin sections
Experimental: We determined if antibody E3 binds to mouse endothelial cells in mouse xenographs. Immunohistochemistry was performed with biotinylated E3 IgG1 (a,z allotype) antibody and control antibodies anti-CD31 (endothelial cell specific marker) and anti-PCNA (proliferating cell nuclear antigen). Formalin-fixed tumor tissues from a mouse-xenograph containing SW480 cells (ATCC) were tested for the binding pattern of the human anti-Tie1 antibody E3. 5 μm sections of paraffin embedded tissues were deparaffinized, rehydrated and pretreated with warm the citrate buffer (0.01 M sodium citrate, pH6 at 95° C.) for 45 min. The slides were cooled down in fresh citrate buffer for 20 min and rinsed with distilled water. The slides were hydrogen peroxide treated, (0.3% H2O2 in PBS), and preincubated with PBS, 5% FCS, 5% heat inactivated human serum (HS) for 1 hour. Between antibody incubations slides were washed 3 times 5 minutes in PBS. Biotinylated antibodies E3 and A2-SV were diluted to a concentration of 10 μg/ml in PBS, 10% HS and incubated for 1 hour at RT. Slides were then incubated with an avidin-HRP (Dako) for 30 minutes at room temperature. Staining was detected by AEC (Vector Laboratories, Burlingame) and H2O2. The peroxidase reaction was stopped with water and slides were counter-stained with haematoxylin. The tissues were evaluated for their binding reactivity.

HUVEC = assay: Flow cytometry on HUVEC control cells; assay type: binding, human
Experimental: Specific binding of the Tie1 antibodies and of control Mabs to mouse endothelial cells was measured by flow cytometry analysis (FACSscan, Becton Dickinson, Oxnard, Epics, Coulter). Mouse endothelial cell lines MS1, Le-2, Bend3, SVEC (ATCC, Rockville) and Tie1 transfected Le-2 cells were stained. Cell staining was modified from existing protocols. About 200,000 cells were used in each experiment: after trypsinization, cells were washed one time in PBS and resuspended PBS, 10% heat inactivated human serum (incubation buffer). To test specificity, antibodies were incubated at different dilutions for 1 h at room temperature. Cells were spun down by centrifugation for 3 min at 611 g. Between incubations cells were washed twice with PBS. […] After the final incubation step bound antibodies were detected by means of flow cytometry on a FACSCan and Epics Altra (Becton Dickinson, Oxnard, Coulter) and results analyzed.
Intracellular Tie1 was measured as described above, except for the addition of Saponin to the incubation buffer to a final concentration of 0.1% during incubations. […] The binding pattern in mouse cell lines detected by flow cytometry is different from the binding pattern in HUVEC in that in mouse cells there is a greater cell surface staining than that compared to primary human endothelial cell lines. […]

Molecule | koff (mouse Tie1 Fc) [s⁻¹] | kon (mouse Tie1 Fc) [M⁻¹ s⁻¹] | staining pattern in SW480 mouse xenograft sections (Tie1) | staining of HUVEC control cells (HUVEC)
E3: human anti-Tie1 antibody from phage Fab library, reformatted as IgG; HC variable SEQ ID NO:114, LC variable SEQ ID NO:116 (antibody, V domains shown, IgG constant regions; Synthetically generated peptide) VH: EVQLLESGGGLVQPGGSLRLSCAASGFTFSMYGMVWVRQAPGKGLEWVSVISPSGGNTGYADSVKGRFTISRDNSKNTLYLQVNSLRAEDTAVYYCARAPRGYSYGYYYWGQGTLVTVSSASTKGPSVFPLAPSSKSTSGG VL: DIQMTQSPLSLSASVGDRVTITCRASQGIGHYLAWYQQKPGKVPKLLIYTASTLQSGVPSRFSGSGSGTDFTLTINSLQPEDVATYYCQQFNSYPHTFGQGTRLDIK | 9.2e-05 | 6170 | consistent with staining of mouse endothelial cell Tie1 | 
DX-2210: E3 antibody in which the light chain has been germlined (antibody, V domains shown) VH: EVQLLESGGGLVQPGGSLRLSCAASGFTFSMYGMVWVRQAPGKGLEWVSVISPSGGNTGYADSVKGRFTISRDNSKNTLYLQVNSLRAEDTAVYYCARAPRGYSYGYYYWGQGTLVTVSSASTKGPSVFPLAPSSKSTSGG VL: DIQMTQSPSSLSASVGDRVTITCRASQGIGHYLAWYQQKPGKVPKLLIYTASTLQSGVPSRFSGSGSGTDFTLTISSLQPEDVATYYCQQFNSYPHTFGQGTRLEIK | 8.99e-05 | 6000 |  | stained positively
